{"source": "patent US8283439B2", "about": "“Recombinant fragments and synthetic peptides of 17-kDa polypeptide useful in detecting Bartonella henselae” (Medical Diagnostic Laboratories L.L.C., priority 2008, dated 2012)", "molecules": {"B1": {"name": "17-kDa Full Length: recombinant full-length 17-kDa (virB5) protein of Bartonella henselae strain Houston-1, aa 1-148; biotinylated in the IgM assay (protein, listed as Bartonella henselae)", "chain": "MKKYSLVTLLSLFCISHAKAQTATLTDEYYKKALENTQKLDVAKSQTAESIYESATQTANKIKDINNQLANLKADTKTKPEQLQALQIELTLLQAQLQADTLKIQSLAMIQAKDTKTKEELREEQTQKKHEDLQKQLKEKLEKSDVQL", "modifications": "biotinylated in IgM assay", "notes": "recombinant full-length 17-kDa (virB5) protein of Bartonella henselae strain Houston-1, aa 1-148; biotinylated in the IgM assay"}}, "key": {"[1]": {"tested_on": "IgM in IFA-positive patient sera", "test": "IgM Capture ELISA with biotinylated recombinant 17-kDa full-length protein", "assay_type": "binding, human", "design": "AUC (ROC analysis of the calibrated slopes): unit not given beside the values", "details": "IFA-positive (n=13) and IFA-negative (n=34) patient samples", "method": "For the IgM Capture assay, purified recombinant 17-kDa full-length protein (1 mg/ml) was biotinylated using the Sulfo-NHS Biotin kit (Pierce, Rockford Ill.). MaxiSorp 96 well plates (Nunc, Rochester N.Y.) were coated with anti-human IgM (KPL, Gaithersburg, Md.) at a concentration of 1 μg/ml in coating buffer (0.015 M Na2CO3, 0.035 M NaHCO3 [pH 9.6]) and incubated overnight at 4° C. The plates were washed with PBS-Tween 20 and blocked with 1% bovine serum albumin (BSA) at room temperature. IgM positive and negative patient sera were used. The sera were diluted 1:100 in 1% BSA with 0.05% Tween 20, prior to being run in duplicate, and reacted with the plates for 1 hr at room temperature.\nBiotinylated recombinant 17-kDa protein was added to the plates at 1 μg/ml in dilution buffer and incubated at room temperature for 1 h with shaking. Streptavidin-HRP (Southern Biotech, Birmingham Ala.) was used to detect the plates followed by development with 3,3′,5,5′-Tetramethylbenzidine (TMB) (Moss, Pasadena, Md.) for 30 minutes. The reaction was stopped with 2M HCl and the absorbance at 450 nm was recorded after a period of 5-30 minutes.\nReceiver operating characteristic (ROC) curve analysis was used to evaluate the performance of the IgM Capture method. ROC plots can be used to compare all tests, even when tests have quite different cutoff values. The study of area under the curve (AUC), which evaluates the probabilities of (1-Specificity) and Sensitivity, is an important statistical feature of such curves (i.e., for samples with Sensitivity=Specificity=100%, AUC would be 1.0)."}, "[2]": {"tested_on": "antibodies against Bartonella henselae in IFA sero-positive patient sera (IgG)", "test": "IgG ELISA with recombinant 17-kDa protein or Fragment 3 as coating antigen", "assay_type": "binding, human", "method": "In the ELISA assay, purified Fragment 3 protein was diluted in coating buffer to a final concentration of 250 ng/ml. Antigen was adhered to 96-well plate by applying 100 μl this solution per well and incubated at 4° C. for 18 hours. Uncoated antigen was removed by washing the plate three times with PBST wash buffer. After washing, post-coating was done with 300 μl blocking reagent General Blocker BB1 in each well for 1 hour at 22° C. Primary polyclonal antibody from 100 μl serum in 1:100 sample dilution buffer each well was allowed to react with coated antigen for 1 hour at 22° C. After five wash steps with PBST wash buffer, each well was incubated with […] peroxidase conjugated goat anti-human IgG (KPL, 1:20,000 from 1 mg/ml stock in sample dilute buffer) for 30 minutes at 22° C. The excess amount of secondary antibody was also removed by five wash steps with PBST wash buffer. The reaction were visualized by adding 100 μl substrate 3,3′5,5′-Tetramethylbenzidine solution and incubated at 22° C. for 15 minutes. The reaction was terminated by adding 100 μl 0.5 M H2SO4 per well before taking OD450nm measurement. Receiver operating characteristic curve (ROC) analysis was calculated with associated 95% confidence interval using a binomial distribution with the MedCalc program.\nIn this series of studies, a panel containing 12 IFA positive serum samples and 6 IFA negative serum samples was evaluated by ELISA using the respective antigen as the coating antigen. FIG. 15 presents the results of this ELISA analysis. […] Neither antigen bound antibody in sample #3508.\nTo further characterize the comparative abilities of recombinant Fragment 3 and the full length protein to bind antibodies to Bartonella henselae, a broader panel of 47 serum samples (27 IFA positive serum samples and 20 IFA negative serum samples) was analyzed by ELISA. The raw data was analyzed with ROC curve comparison in statistic software MedCalc.\nA panel of 47 human sera was used in an IgG ELISA to evaluate the sensitivity and specificity for Fragment 3 mutants. The raw data was analyzed by interactive dot diagram assay (FIGS. 31 and 32).\nPurified protein was diluted in coating buffer to a final concentration 250 ng/ml. Antigen was adhered to 96-well plate by applying 100 μl above prepared solution per well and incubate at 4° C. for 18 hours. We removed uncoated antigen by washing plate three times with PBST wash buffer. After washing, post-coating was done with 300 μl blocking reagent General Blocker BB1 each well for 1 hour at 22° C. Then primary polyclonal antibody from 100 μl serum in 1:100 sample dilution buffer each well was allowed to react with coated antigen for 1 hour at 22° C. After five times washing with PBST wash buffer, we incubated each well with 100 μl peroxidase conjugated goat anti-human IgG (KPL, 1:20,000 from 1 mg/ml stock in sample dilute buffer) for 30 minutes at 22° C. The excess amount of secondary antibody was also removed by five times washing with PBST wash buffer. The reaction were visualized by adding 100 μl substrate 3,3′5,5′-Tetramethylbenzidine Solution and incubated at 22° C. for 15 minutes. In the end, we terminated reaction with 100 μl 0.5 M H2SO4 per well before taking OD450nm measurement. Receiver operating characteristic curve (ROC) analysis was calculated with associated 95% confidence interval using a binomial distribution with MedCalc program."}}}
{"molecule": "B1", "values": [{"measurement": "AUC (ROC analysis of the calibrated slopes)", "setting": "[1]", "value": 0.998}, {"measurement": "sensitivity", "setting": "[1]", "value": 100, "unit": "%"}, {"measurement": "specificity", "setting": "[1]", "value": 97.1, "unit": "%"}, {"measurement": "area under ROC curve (AUC)", "setting": "[2]; IgG ELISA, panel of 47 serum samples (27 IFA positive, 20 IFA negative), MedCalc ROC", "value": 0.853}, {"measurement": "reaction with IFA negative serum samples", "setting": "[2]; panel of 12 IFA positive and 6 IFA negative serum samples", "value": "Neither antigen reacted with any of the IFA negative serum samples"}]}
